Data from publication PMC3919625.

Molecular target: 2G12 IgG monomer (human)
Assay: SEC

B1: soluble neonatal Fc receptor (FcRn) (receptor)
chain 1: AEPRLPLMYHLAAVSDLSTGLPSFWATGWLGAQQYLTYNNLRQEADPCGAWIWENQVSWYWEKETTDLKSKEQLFLEAIRTLENQINGTFTLQGLLGCELAPDNSSLPTAVFALNGEEFMRFNPRTGNWSGEWPETDIVGNLWMKQPEAARKESEFLLTSCPERLLGHLERGRQNLEWKEPPSMRLKARPGNSGSSVLTCAAFSFYPPELKFRFLRNGLASGSGNCSTGPNGDGSFHAWSLLEVKRGDEHHYQCQVEHEGLAQPLTVDLDSPARSS
chain 2: IQKTPQIQVYSRHPPENGKPNFLNCYVSQFHPPQIEIELLKNGKKIPNIEMSDLSFSKDWSFYILAHTEFTPTETDVYACRVKHVTLKEPKTVTWDRDM
  stoichiometry N (FcRn per 2G12 monomer): 2
